Results taken from patent US5070188A, “Acylated epidermal growth factor” (Ethicon, Inc., priority 1989, dated 1991).
Several values for one entry are separate records, joined by “and”; a condition that tells them apart may be missing. Identical values can stand only once.

Assays:
[1] = target: T1, trypsin (Bos taurus, UniProt P00760); assay: in vitro susceptibility to proteolytic degradation (tryptic digestion, HPLC); format: in vitro ADME
T1 construct: purchased Worthington Biochem Corp
T1 sequence (P00760 24-246): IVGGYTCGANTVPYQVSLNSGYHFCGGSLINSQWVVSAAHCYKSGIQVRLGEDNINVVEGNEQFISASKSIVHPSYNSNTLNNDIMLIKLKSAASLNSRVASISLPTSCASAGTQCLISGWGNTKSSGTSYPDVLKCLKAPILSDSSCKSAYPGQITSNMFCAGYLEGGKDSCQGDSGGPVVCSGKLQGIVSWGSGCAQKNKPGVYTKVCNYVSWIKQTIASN

[2] = shelf stability, activity followed with the Receptor Binding Assay; format: physicochemical; details: for activity retained (RBA), 2 months/37° C.: stored 2 months at 37° C.; for activity retained (RBA), 2 months/4° C.: stored 2 months at 4° C.
Description: Samples are further analyzed by testing the biological activity in the Receptor Binding Assay (RBA) system and/or in a mitogenic assay system according to the standard procedure. Under these conditions, the extent of activity of modified EGF was compared with that of the unmodified EGF on a weight per weight basis. A similar test is used to follow the stability of EGF products. The RBA is described in Savage et al., Analytical Biochem, 111, pages 195 et seq. (1981) and in U.S. Pat. No. 4,717,717. For RBA studies, a cell line with a high density of receptors for EGF is grown to confluency in microwell plates. After removing the growth media and slightly fixing the cells, the binding of modified EGF to the cell surface in the presence of competing iodinated-EGF is compared with the binding of non-radioactive, unmodified EGF under the same conditions. The concentration of modified EGF is extrapolated from the standard curve made for unmodified EGF. Acylated EGF with acyl side chains ranging from C2 to C8 retained biological activity according to the RBA.
The shelf stability of EGF and acylated EGF derivatives with different degrees of modification and acyl side chains was studied using the Receptor Binding Assay (RBA) system. […]

[3] = test system: EGF sensitive cell line; assay: mitogenic assay, tritium labelled thymidine incorporation; format: cell-based; details: compared with C2 acylated EGF
Description: For mitogenic assay systems, an EGF sensitive cell line is grown to confluency at the bottom of microwell plates. After replacing the regular growth media with growth factor poor media, modified EGF is added with tritium labelled thymidine. The extent of incorporation of the tritium labelled thymidine in the presence and absence of growth factors is then weighed. The effects of modified EGF are compared with those of unmodified EGF under the same system.

Row | Substance | activity retained (RBA), 2 months/37° C. [2] | activity retained (RBA), stored time 0 [2] [%] | activity retained (RBA), 2 months/4° C. [2] | other results
1 | C2 -EGF: human EGF triacylated with acetyl groups | 87.37% and 88% | 100 |  | remaining fraction that resisted proteolysis ([1]; mixture C2-EGF:native EGF 1.5 to 1, TPCK-trypsin, up to 4 hours incubation): 75-80%; fraction that resisted proteolytic cleavage at Arg 41 and Arg 45 ([1]; trypsin, over 4 hours incubation at 30° C.): over 75%; tryptic fragments generated (HPLC, cation exchanger column) ([1]; tryptic digestion, substance alone): did not generate any fragment; improvement of retained activity over control unmodified native EGF ([2]; stored at 37° C., 2 months): 30%
2 | C6 -EGF: acylated human EGF with C6 acyl side chain | 66.94% | 100 | 61.88% | 
3 | C8 -EGF: acylated human EGF with C8 acyl side chain | 69.04% | 100 | 83.19% | 
4 | C12: acylated EGF having an acyl side chain of C12 |  |  |  | reactivity in the mitogenic assay [3]: nearly as reactive as C2
5 | Control EGF: Recombinantly produced human EGF (Chiron Corporation), unmodified 53 amino acid polypeptide, used as control [reference compound] | 57.52% and 58% | 100 | 81.09% and 81% | fraction digested ([1]; mixture C2-EGF:native EGF 1.5 to 1, TPCK-trypsin, within about 20 minutes): over 85%; cleavage by trypsin ([1]; within 5 minutes post-incubation, 30° C.): over 65%; remaining molecules cleaved by trypsin ([1]; within 2 hours post-incubation): 35%
